The text below walks through data of patent US20100196266A1.

Assay [1] concerns the target antigen recognised by L243 on canine lymphocytes and canine lymphoma cells (HLA-DR of the dog) (dog). Kind of assay: flow cytometry, dog lymphoma aspirate; none 3.85. For orientation: In flow cytometry, cells or beads pass a laser one at a time.
For assay [2] the target is unchanged. Nature of the assay: flow cytometry, canine lymphoma aspirate 150836; none 3.9.
The target is the same in assay [3]. Nature of the assay: flow cytometry, canine lymphoma aspirate 150836; none 3.4.
Assay [4] has the same target. Nature of the assay: flow cytometry, dog lymphoma aspirate; none 3.37.
Assay [5] concerns the target human leukocyte antigen-DR (HLA-DR) on human lymphoma and leukemia cell lines and human lymphocytes (human). Nature of the assay: indirect flow cytometry, Namalwa cells, FITC-GAM; none 2.91; control antibody.
The target in assay [6] is antigen recognised by L243 on canine lymphocytes and canine lymphoma cells (HLA-DR of the dog) (dog). Nature of the assay: flow cytometry, dog lymphoma aspirate; none 4.48.
Assay [7] shares this target. Kind of assay: flow cytometry, canine lymphoma aspirate 150836; none 3.2.
For assay [8] the target is unchanged. Kind of assay: flow cytometry, dog lymphoma aspirate; none 3.24.
Assay [9] shares this target. Kind of assay: flow cytometry, canine lymphoma aspirate 150836; none 4.5.
In assay [10] the target is human leukocyte antigen-DR (HLA-DR) on human lymphoma and leukemia cell lines and human lymphocytes (human). Kind of assay: indirect FACS, FITC-GAH Fc, WSU-FSCCL cells; none 2.6; control antibody.
The target is the same in assay [11]. Kind of assay: indirect flow cytometry, Namalwa cells, FITC-GAH; none 2.52; control antibody.
The target is the same in assay [12]. Kind of assay: indirect flow cytometry, FITC-GAH Fc, Namalwa cells; none 2.6; negative control.
Assay [13] shares this target. Nature of the assay: indirect flow cytometry, FITC-GAH Fc, Daudi cells; none 3.2; negative control.
Assay [14] has the same target. Nature of the assay: indirect FACS, FITC-GAH Fc, Daudi cells; none 3.1; control antibody.
For assay [15], the target named is antigen recognised by L243 on canine lymphocytes and canine lymphoma cells (HLA-DR of the dog) (dog). Kind of assay: flow cytometry, dog lymphoma aspirate; none 3.24; control antibody.
Assay [16] has as its target human leukocyte antigen-DR (HLA-DR) on human lymphoma and leukemia cell lines and human lymphocytes (human). Kind of assay: indirect FACS, FITC-GAH Fc, Raji cells; none 6.8; control antibody.
For assay [17], the target named is antigen recognised by L243 on canine lymphocytes and canine lymphoma cells (HLA-DR of the dog) (dog). Kind of assay: flow cytometry, canine lymphoma aspirate 150836; none 3.2; control antibody.
The target is the same in assay [18]. Kind of assay: flow cytometry, canine lymphoma aspirate 150836; none 4.5; control antibody.
Assay [19] concerns the target human leukocyte antigen-DR (HLA-DR) on human lymphoma and leukemia cell lines and human lymphocytes (human). Kind of assay: indirect FACS, FITC-GAH Fc, Ramos cells; none 3.1; control antibody.
Assay [20] shares this target. Kind of assay: indirect flow cytometry, FITC-GAH Fc, WSU-FSCCL cells; none 2.7; negative control.
Assay [21] has as its target antigen recognised by L243 on canine lymphocytes and canine lymphoma cells (HLA-DR of the dog) (dog). Nature of the assay: flow cytometry, dog lymphoma aspirate; none 4.48; control antibody.
Assay [22] concerns the target human leukocyte antigen-DR (HLA-DR) on human lymphoma and leukemia cell lines and human lymphocytes (human). Nature of the assay: indirect FACS, FITC-GAH Fc, Namalwa cells; none 2.5; control antibody.
The target is the same in assay [23]. Nature of the assay: indirect FACS, FITC-GAH Fc, SU-DHL-6 cells; none 4.6; control antibody.
Assay [24] shares this target. Kind of assay: indirect flow cytometry, FITC-GAH Fc, RL cells; none 2.4; negative control.
Assay [25] shares this target. Nature of the assay: indirect flow cytometry, FITC-GAH Fc, Raji cells; none 6.9; negative control.
Assay [26] has the same target. Nature of the assay: indirect flow cytometry, FITC-GAH Fc, Ramos cells; none 3.1; negative control.
Assay [27] has the same target. Nature of the assay: indirect flow cytometry, FITC-GAH Fc, SU-DHL-6 cells; none 4.6; negative control.

B1: murine monoclonal antibody L243 (mL243) (antibody, V domains shown)
VH: QIQLVQSGPELKKPGETVKISCKASGFTFTNYGMNWVKQAPGKGLKWMGWINTYTREPTYADDFKGRFAFSLETSASTAYLQINNLKNEDTAKYFCARDITAVVPTGFDYWGQGTTLTVSS
VL: DIQMTQSPASLSVSVGETVTITCRASENIYSNLAWYRQKQGKSPQLLVFAASNLADGVPSRFSGSGSGTQYSLKINSLQSEDFGDYYCQHFWTTPWAFGGGTNLEIKR
Regarding B1, the % Positive in assay [1] and in assay [2] was 77.8% throughout. Moreover, the mean FL in [3] and in assay [4] was 10.4 in each case.

B2: murine MN-14 (anti-carcinoembryonic antigen) (antibody, from a related filing, V domains shown)
VH: EVKLLESGGGLVQSGGSLKLSCAASGFDFTTYWMSWVRQAPGKGLEWIGEIHPDSSTINYAPSLKDKFIVSRDNAKNTLYLQMSKVRSEDTALYYCASLYFGFPWFAYWGQGTPVTVSA
VL: EIQLTQSHKMMSTSVGDRVSITCKASQDVGTSVAWYQQRPGQSPKLLIYWTSTRHTGVPDRFTGSVSGTDFTLTITNVQSEDLADYFCQQYSLYRSFGGGTKLEIK
Molecule B2 returned a GEO MEAN Fluorescence in assay [5] of 3.32.

B3: hL243γ4P (humanized L243, IgG4/K isotype with hinge mutation Ser241Pro) (antibody, V domains shown)
VH: QVQLQQSGSELKKPGASVKVSCKASGFTFTNYGMNWVKQAPGQGLKWMGWINTYTREPTYADDFKGRFAFSLDTSVSTAYLQISSLKADDTAVYFCARDITAVVPTGFDYWGQGSLVTVSS
VL: DIQLTQSPSSLSASVGDRVTITCRASENIYSNLAWYRQKPGKAPKLLVFAASNLADGVPSRFSGSGSGTDYTFTISSLQPEDIATYYCQHFWTTPWAFGGGTKLQIKR
As to B3, the % Positive in assay [6] was 26.3%; in assay [9] it was 26.2%. In addition, the mean FL in assay [7] is 5.5; in assay [8] it was 5.47.

B4: hMN-14, labetuzumab (humanized anti-carcinoembryonic antigen IgG1) (antibody, INN chains, looked up, V domains shown)
VH: EVQLVESGGGVVQPGRSLRLSCSASGFDFTTYWMSWVRQAPGKGLEWIGEIHPDSSTINYAPSLKDRFTISRDNAKNTLFLQMDSLRPEDTGVYFCASLYFGFPWFAYWGQGTPVTVSS
VL: DIQLTQSPSSLSASVGDRVTITCKASQDVGTSVAWYQQKPGKAPKLLIYWTSTRHTGVPSRFSGSGSGTDFTFTISSLQPEDIATYYCQQYSLYRSFGQGTKVEIKR
For the molecule B4, the Geometric Mean Fluorescence in assay [10] turned out to be 2.66; in assay [12], 2.4; in assay [13], 3.2; in assay [14] it was 3.16; in [16], 6.96; in assay [19] it was 3.13. Further, the Geometric Mean Fluorescence worked out at 2.7 in assay [20]; 2.36 in [22]; 4.94 in [23]; 2.8 in assay [24]; 7 in assay [25]; 3.1 in assay [26]. The Geometric Mean Fluorescence in assay [27] came out at 4.9. This molecule also returned a GEO MEAN Fluorescence in [11] of 2.49. The mean FL in [15] is 3.24; in assay [17], 3.2. Moreover, the % Positive came out at 4.6% in assay [18] and 4.63% in [21].
